Results from paper PMC10620216.

Target: anti-StrepTagII pentameric IgM with J-chain
Assay: mass photometry; Refeyn OneMP, in PBS, measurement concentrations typically around 5–20 nM, recorded for 120 s; oligomeric state of the antibody in solution

percent (m/m) of IgM in pentameric configuration: 85 % (m/m)
stoichiometry N: 5
B1: anti-StrepTagII pentameric IgM with J-chain (antibody, V domains shown)
VH: EVQLEQSGPELVKPGASVKMSCKASGYTFTNYYMKWVKQSHGKSLEWIGDLNPNNGDTFYNQKFKGKATLTVDKSSNTAYMQLNSLTSEDSAVYYCARTGRYEENAMDYWGQGTSVTVSS
VL: ELVMTQSPASLAVSLGQRATISCRASESVDSYGKSFMHWYQLKPGQPPKLLIYRASNLESGVPARFSGSGSRTDFTLTIDPVEADDAATYYCQQNNEDPWTFGGGTKLEIK
